Assay results as given in patent US8491891B2, “Human beta-glucuronidase mutants with elevated enzymatic activity under physiological conditions and method for identifying such” (Academia Sinica, priority 2008, dated 2013).
Values belong to the molecule of their own block, whether it stands above or below them.

Experiments:
[1] = Kinetic values (Km, kcat) of soluble recombinant human β-glucuronidase and variants; assay type: biochemical; settings: for kcat/Km, fold higher than wild-type human β-glucuronidase: pH 7.0
Protocol: Recombinant His-tagged wild-type human β-glucuronidase and its variants (soluble) were produced in and purified from stable 3T3 fibroblast lines, following the method described above also the method described in Wu et al., Biotechnol Appl Biochem 40:167-172 (2004).
(§1) The pH-dependent enzyme activities of the above-mentioned recombinant human beta-glucuronidase and variants were measured in triplicate with 0.1 mM ELF97 β-D-glucuronide at 37° C. for 30 minutes at a defined pH ranging from 3-10 in a beta-glucuronidase reaction buffer (50 mM Bis-Tris, 50 mM triethanol amine, 100 mM acetic acid, 0.1% BSA). The reaction was quenched by adding an equal volume of a stop buffer (2 M Tris-HCl, 0.8 M sodium bicarbonate, pH 8). The fluorescence of ELF97 was measured in a Gemini EM microplate spectrofluorometer (Molecular Device, Sunnyvale, Calif.) at excitation/emission wavelengths of 355/555 nm. Kinetic values for human beta-glucuronidase substrate hydrolysis were determined by diluting ELF97 β-D-glucuronide (2 mM) in a pH 4.5 or pH 7.0 beta-glucuronidase reaction buffer 1:1 with defined concentrations of human beta-glucuronidase in 200 μl. Fluorescence was immediately measured under thermal control at 37° C. for 8-10 min. The measurement was repeated using the same amount of enzyme at different substrate concentrations in an optimal range. The acquired readings were converted to product concentration based on preestablished standard curves. Double reciprocal plots were used to determine Km and kcat. Kinetic assays were performed at least 3 times and mean values were calculated. The stability of recombinant human beta-glucuronidase variants was carried out by measuring their enzymatic activity at time 0 and again after incubating 5 μg purified enzymes in PBS (containing 0.5 mg/ml BSA) at 37° C. for 14 days. The enzymatic activities of the human beta-glucuronidase variants were measured in triplicate with 0.5 mM 4-methylumbelliferyl β-D-glucuronide at 37° C. for 15 minutes at pH 7.0 in β-glucuronidase reaction buffer. The reaction was terminated by adding an equal volume of a stop buffer (1 M glycine, 0.5 M sodium bicarbonate, pH 11) and the fluorescence was measured at excitation/emission wavelengths of 355/460 nm in a microplate spectrofluorometer.

[2] = system: EJ human bladder cancer cells; assay: Prodrug activation of HAMG by enzyme, 3H-thymidine incorporation; assay type: cell-based; settings: 10 μM HAMG, pH 6.8, 24 h
Protocol: (§2) The prodrug activation activity of the human beta-glucuronidase variants was determined as follows. EJ human bladder cancer cells were incubated with graded concentrations (see FIGS. 3B and 3C) of human β-glucuronidase variants in RPMI (pH 6.8) containing either 10 μM HAMG or 100 nM SN-38G for 24 hours. The cells were further incubated for 24 hours in fresh medium before incorporation of ^3H-thymidine into cellular DNA was measured following the procedure described below.
(§3) Purified recombinant human beta-glucuronidase and its variants with defined concentrations were mixed with 10 μM HAMG or 100 nM SN-38G and the mixture was added to 5000 EJ human bladder cancer cells in 200 μl complete medium at pH 6.8 for 24 h. The cells were washed and incubated in fresh medium for 24 h and then pulsed for 16 h with ^3H-thymidine (1 μCi/well). The cells were harvested and the radioactivity was measured in a TopCount Microplate Scintillation Counter (Packard, Meriden, Conn.). Results are expressed as percent inhibition of ^3H-thymidine incorporation into cellular DNA in comparison to untreated cells.

[3] = system: EJ human bladder cancer cells; assay: Prodrug activation of SN-38G by enzyme, 3H-thymidine incorporation; assay type: cell-based; settings: 100 nM SN-38G, pH 6.8, 24 h
Protocol: as §2, §3

[4] = Relative activity of membrane-tethered human β-glucuronidase variants on 3T3 cells by flow cytometry (FL4/FL1); assay type: cell-based; settings: membrane-tethered enzyme, pH 7.0, substrate ELF97 β-D-glucuronide
Protocol: The 3T3 cell libraries mentioned above were screened by FACS analysis for cells that express human β-glucuronidase variants with elevated enzymatic activity. 10^7 3T3 cells expressing membrane-bound human β-glucuronidase variants were washed and suspended in 0.4 ml BSA/HBSS (5.4 mM KCl, 0.3 mM Na2HPO4, 0.4 mM KH2PO4, 4.2 mM NaHCO3, 1.3 mM CaCl2, 0.5 mM MgCl2, 0.6 mM MgSO4, 137 mM NaCl, 5.6 mM D-glucose, pH 7.4) containing 0.5% bovine serum albumin (BSA) and 20 μg/ml 7G8-FITC for 30 min at 4° C. Cells were then washed and incubated with 25, 50 or 100 μM ELF97 β-D-glucuronide at defined pH values in 50 mM Bis-Tris, 25 mM glucose, 85.6 mM NaCl, 5.4 mM KCl, 0.6 mM MgSO4, 1.3 mM CaCl2) at 37° C. for 10 min. The cells were washed with ice-cold 0.5% BSA/HBSS and suspended in 0.5% BSA/HBSS containing 5 μg/ml propidium iodide (Sigma). Cells were then sorted on a FACSVantage DiVa (Becton, Dickinson and Company, Franklin Lakes, N.J.) equipped with an Enterprise IIC argon laser for dual excitation at 488 and 351-364 nm. Dead cells (propidium iodide positive, high FL3 fluorescence) were gated out before 7G8-FITC immunofluorescence was detected at excitation/emission wavelengths of 488/515 nm (FL1) and ELF97 was detected at excitation/emission wavelengths of 351/530 nm (FL4). […] The sorted cells were cultured for 4-10 days for sequential rounds of cell sorting or RNA extraction. Flow cytometer data was analyzed using Flowjo (Tree star, Ashland, Oreg.).
Independent 3T3 clones (5×10^7) in library EP2 mentioned above were immunofluorescence stained with 7G8-FITC and reacted with ELF97 β-D-glucuronide at pH 7.0. Sixteen individual cell clones were isolated after three rounds of sorting and the human β-glucuronidase genes were sequenced. […] Table 1 below lists amino acid substitutions in five exemplary variants and their relative enzymatic activities.

[5] = pH-dependent enzyme activity of recombinant human β-glucuronidase and variants (pH 3-10); assay type: biochemical
Protocol: as §1, with “The measurement was repeated using the same amount of enzyme at different substrate concentrations in an optimal range.” left out, “Double reciprocal plots were used to determine Km and kcat.” left out, “The stability of recombinant human beta-glucuronidase variants was carried out by measuring their enzymatic activity at time 0 and again after incubating 5 μg purified enzymes in PBS (containing 0.5 mg/ml BSA) at 37° C. for 14 days.” left out, “The reaction was terminated by adding an equal volume of a stop buffer (1 M glycine, 0.5 M sodium bicarbonate, pH 11) and the fluorescence was measured at excitation/emission wavelengths of 355/460 nm in a microplate spectrofluorometer.” left out

[6] = Enzymatic activity of purified position-545 single mutants at pH 7.0; assay type: biochemical; settings: purified enzyme
From the text: DNA plasmids were extracted from 12 individual cell clones and subjected to DNA sequencing to examine mutations in the genes encoding human β-glucuronidase variants. All human β-glucuronidase variants being examined had mutations at position 545 (50% T→A and 50% T→S). To determine the effect of amino acid substitutions at position 545 on enzyme activity, the single amino acid mutants T545A (E1-A), T545G (E1-G), T545S (E1-S) and T545Y (E1-Y) were generated and purified from the culture medium of stably transfected fibroblasts. […] Thus, the single amino acid substitution at position 545 affected human β-glucuronidase activity at neutral pH.

pH of maximal activity ([5]; 0.1 mM ELF97 β-D-glucuronide, 37° C., 30 minutes): 4.0 | Activity at pH 7.0 as percent of maximal activity ([5]; pH 7.0): 2%
B1: Wild type: Human beta-glucuronidase (wild-type, SEQ ID NO: 11) (protein, listed as Homo sapiens)
chain: MARGSAVAWAALGPLLWGCALGLQGGMLYPQESPSRECKELDGLWSFRADFSDNRRRGFEEQWYRRPLWESGPTVDMPVPSSFNDISQDWRLRHFVGWVWYEREVILPERWTQDLRTRVVLRIGSAHSYAIVWVNGVDTLEHEGGYLPFEADISNLVQVGPLPSRLRITIAINNTLTPTTLPPGTIQYLTDTSKYPKGYFVQNTYFDFFNYAGLQRSVLLYTTPTTYIDDITVTTSVEQDSGLVNYQISVKGSNLFKLEVRLLDAENKVVANGTGTQGQLKVPGVSLWWPYLMHERPAYLYSLEVQLTAQTSLGPVSDFYTLPVGIRTVAVTKSQFLINGKPFYFHGVNKHEDADIRGKGFDWPLLVKDFNLLRWLGANAFRTSHYPYAEEVMQMCDRYGIVVIDECPGVGLALPQFFNNVSLHHHMQVMEEVVRRDKNHPAVVMWSVANEPASHLESAGYYLKMVIAHTKSLDPSRPVTFVSNSNYAADKGAPYVDVICLNSYYSWYHDYGHLELIQLQLATQFENWYKKYQKPIIQSEYGAETIAGFHQDPPLMFTEEYQKSLLEQYHLGLDQKRRKYVVGELIWNFADFMTEQSPTRVLGNKKGIFTRQRQPKSAAFLLRERYWKIANETRYPHSVAKSQCLENSPFT
Km ([1]; pH 4.5, 37° C.): 480 ± 60 µM | kcat ([1]; pH 4.5, 37° C.): 175 ± 17 s⁻¹ | Km ([1]; pH 7.0, 37° C.): 2250 ± 670 µM | kcat ([1]; pH 7.0, 37° C.): 41 ± 6 s⁻¹ | EC50 of enzyme for killing of EJ cells with HAMG [2]: 24 µg/mL | EC50 of enzyme for killing of EJ cells with SN-38G [3]: 0.096 µg/mL | Relative activity (FL4/FL1 normalized to wild-type human β-glucuronidase) [4]: 1

B2: E1-S: human beta-glucuronidase variant T545S, SEQ ID NO: 6 (protein)
chain: GAQPALQGGMLYPQESPSRECKELDGLWSFRADFSDNRRRGFEEQWYRRPLWESGPTVDMPVPSSFNDISQDWRLRHFVGWVWYEREVILPERWTQDLRTRVVLRIGSAHSYAIVWVNGVDTLEHEGGYLPFEADISNLVQVGPLPSRLRITIAINNTLTPTTLPPGTIQYLTDTSKYPKGYFVQNTYFDFFNYAGLQRSVLLYTTPTTYIDDITVTTSVEQDSGLVNYQISVKGSNLFKLEVRLLDAENKVVANGTGTQGQLKVPGVSLWWPYLMHERPAYLYSLEVQLTAQTSLGPVSDFYTLPVGIRTVAVTKSQFLINGKPFYFHGVNKHEDADIRGKGFDWPLLVKDFNLLRWLGANAFRTSHYPYAEEVMQMCDRYGIVVIDECPGVGLALPQFFNNVSLHHHMQVMEEVVRRDKNHPAVVMWSVANEPASHLESAGYYLKMVIAHTKSLDPSRPVTFVSNSNYAADKGAPYVDVICLNSYYSWYHDYGHLELIQLQLATQFENWYKKYQKPIIQSEYGAESIAGFHQDPPLMFTEEYQKSLLEQYHLGLDQKRRKYVVGELIWNFADFMTEQSPTRVLGNKKGIFTRQRQPKSAAFLLRERYWKIANETRYPHSVAKSQCLENSPFTSVD
modifications: Laboratory generated variant, E1-S, based upon the human beta-glucuronidase
Enzymatic activity relative to wild-type human β-glucuronidase [6]: about 1.5 fold | Km ([1]; pH 4.5, 37° C.): 52 ± 4 µM | kcat ([1]; pH 4.5, 37° C.): 117 ± 14 s⁻¹ | kcat/Km, fold higher than wild-type human β-glucuronidase [1]: 4 fold | Km ([1]; pH 7.0, 37° C.): 390 ± 40 µM | kcat ([1]; pH 7.0, 37° C.): 31 ± 6 s⁻¹ | Relative activity (FL4/FL1 normalized to wild-type human β-glucuronidase) [4]: 21

B3: E1-G: human beta-glucuronidase variant T545G, SEQ ID NO: 7 (protein)
chain: GAQPALQGGMLYPQESPSRECKELDGLWSFRADFSDNRRRGFEEQWYRRPLWESGPTVDMPVPSSFNDISQDWRLRHFVGWVWYEREVILPERWTQDLRTRVVLRIGSAHSYAIVWVNGVDTLEHEGGYLPFEADISNLVQVGPLPSRLRITIAINNTLTPTTLPPGTIQYLTDTSKYPKGYFVQNTYFDFFNYAGLQRSVLLYTTPTTYIDDITVTTSVEQDSGLVNYQISVKGSNLFKLEVRLLDAENKVVANGTGTQGQLKVPGVSLWWPYLMHERPAYLYSLEVQLTAQTSLGPVSDFYTLPVGIRTVAVTKSQFLINGKPFYFHGVNKHEDADIRGKGFDWPLLVKDFNLLRWLGANAFRTSHYPYAEEVMQMCDRYGIVVIDECPGVGLALPQFFNNVSLHHHMQVMEEVVRRDKNHPAVVMWSVANEPASHLESAGYYLKMVIAHTKSLDPSRPVTFVSNSNYAADKGAPYVDVICLNSYYSWYHDYGHLELIQLQLATQFENWYKKYQKPIIQSEYGAEGIAGFHQDPPLMFTEEYQKSLLEQYHLGLDQKRRKYVVGELIWNFADFMTEQSPTRVLGNKKGIFTRQRQPKSAAFLLRERYWKIANETRYPHSVAKSQCLENSPFTSVD
modifications: Laboratory generated variant, E1-G, based upon the human beta-glucuronidase
Enzymatic activity relative to wild-type human β-glucuronidase [6]: about 2.5 fold | Km ([1]; pH 4.5, 37° C.): 22 ± 2 µM | kcat ([1]; pH 4.5, 37° C.): 106 ± 4 s⁻¹ | kcat/Km, fold higher than wild-type human β-glucuronidase [1]: 10 fold | Km ([1]; pH 7.0, 37° C.): 110 ± 10 µM | kcat ([1]; pH 7.0, 37° C.): 32 ± 4 s⁻¹

B4: E1-Y: human β-glucuronidase single amino acid mutant T545Y (protein, UniProt P08236 23-651, looked up, variant T545Y)
Beta-glucuronidase: LQGGMLYPQESPSRECKELDGLWSFRADFSDNRRRGFEEQWYRRPLWESGPTVDMPVPSSFNDISQDWRLRHFVGWVWYEREVILPERWTQDLRTRVVLRIGSAHSYAIVWVNGVDTLEHEGGYLPFEADISNLVQVGPLPSRLRITIAINNTLTPTTLPPGTIQYLTDTSKYPKGYFVQNTYFDFFNYAGLQRSVLLYTTPTTYIDDITVTTSVEQDSGLVNYQISVKGSNLFKLEVRLLDAENKVVANGTGTQGQLKVPGVSLWWPYLMHERPAYLYSLEVQLTAQTSLGPVSDFYTLPVGIRTVAVTKSQFLINGKPFYFHGVNKHEDADIRGKGFDWPLLVKDFNLLRWLGANAFRTSHYPYAEEVMQMCDRYGIVVIDECPGVGLALPQFFNNVSLHHHMQVMEEVVRRDKNHPAVVMWSVANEPASHLESAGYYLKMVIAHTKSLDPSRPVTFVSNSNYAADKGAPYVDVICLNSYYSWYHDYGHLELIQLQLATQFENWYKKYQKPIIQSEYGAEYIAGFHQDPPLMFTEEYQKSLLEQYHLGLDQKRRKYVVGELIWNFADFMTEQSPTRVLGNKKGIFTRQRQPKSAAFLLRERYWKIANETRYPHSVAKSQCLENSLFT
Enzymatic activity relative to wild-type human β-glucuronidase [6]: almost inactive
